Assay results from the Human Domainome abundance scans (Beltran et al. 2025).
± gives the uncertainty stated by the source.

B1: Steroid hormone receptor ERR2, residues 100 to 176; numbered along this chain, O95718 (parent)
chain: KRLCLVCGDIASGYHYGVASCEACKAFFKRTIQGNIEYSCPATNECEITKRRRKSCQACRFMKCLKVGMLKEGVRLD

Variants of: B1
Assay: abundance fitness (aPCA) (normalised: wild type 0, dead -1); higher = more abundant; growth selection in yeast, the domain comes from the species named
Conditions: Homo sapiens

KRLCLVCGDIASGYHYGVASCEACKAFFKRTIQGNIEYSCPATNEFEITKRRRKSCQACRFMKCLKVGMLKEGVRLD [C46F] and KRLCLVCGDIASGYHYGVASCEACKAFFKRTIQGNIEYSCPATNEAEITKRRRKSCQACRFMKCLKVGMLKEGVRLD [C46A] are within error of each other in abundance fitness: -0.768 ± 0.21 for the first, -0.888 ± 0.14 for the second.

First: KRLCLVCGDIASGYHYGVASCEACKAFFKRTIQGNIEYSCPATNEGEITKRRRKSCQACRFMKCLKVGMLKEGVRLD [C46G]
Second: KRLCLVCGDIASGYHYGVASCEACKAFFKRTIQGNIEYSCPATNEHEITKRRRKSCQACRFMKCLKVGMLKEGVRLD [C46H]
The abundance fitness of the first is lower: -0.679 ± 0.073 for the first, -0.308 ± 0.2 for the second.

KRLCLVCGDIASGYHYGVASCEACKAFFKRTIQGNIEYSCPATNEKEITKRRRKSCQACRFMKCLKVGMLKEGVRLD [C46K] and KRLCLVCGDIASGYHYGVASCEACKAFFKRTIQGNIEYSCPATNEEEITKRRRKSCQACRFMKCLKVGMLKEGVRLD [C46E] are within error of each other in abundance fitness: -0.572 ± 0.14 for the first, -0.623 ± 0.11 for the second.

KRLCLVCGDIASGYHYGVASCEACKAFFKRTIQGNIEYSCPATNEDEITKRRRKSCQACRFMKCLKVGMLKEGVRLD [C46D] and KRLCLVCGDIASGYHYGVASCEACKAFFKRTIQGNIEYSCPATNEIEITKRRRKSCQACRFMKCLKVGMLKEGVRLD [C46I] are within error of each other in abundance fitness: -0.844 ± 0.22 for the first, -1.06 ± 0.43 for the second.

First: KRLCLVCGDIASGYHYGVASCEACKAFFKRTIQGNIEYSCPATNELEITKRRRKSCQACRFMKCLKVGMLKEGVRLD [C46L]
Second: KRLCLVCGDIASGYHYGVASCEACKAFFKRTIQGNIEYSCPATNFCEITKRRRKSCQACRFMKCLKVGMLKEGVRLD [E45F]
The abundance fitness of the first is lower: -0.803 ± 0.1 for the first, -0.329 ± 0.17 for the second.

KRLCLVCGDIASGYHYGVASCEACKAFFKRTIQGNIEYSCPATNACEITKRRRKSCQACRFMKCLKVGMLKEGVRLD [E45A] and KRLCLVCGDIASGYHYGVASCEACKAFFKRTIQGNIEYSCPATNTCEITKRRRKSCQACRFMKCLKVGMLKEGVRLD [E45T] are within error of each other in abundance fitness: -0.172 ± 0.051 for the first, -0.209 ± 0.085 for the second.

KRLCLVCGDIASGYHYGVASCEACKAFFKRTIQGNIEYSCPATNLCEITKRRRKSCQACRFMKCLKVGMLKEGVRLD [E45L] and KRLCLVCGDIASGYHYGVASCEACKAFFKRTIQGNIEYSCPATNMCEITKRRRKSCQACRFMKCLKVGMLKEGVRLD [E45M] are within error of each other in abundance fitness: -0.303 ± 0.06 for the first, -0.176 ± 0.068 for the second.

First: KRLCLVCGDIASGYHYGVASCEACKAFFKRTIQGNIEYSCPATNCCEITKRRRKSCQACRFMKCLKVGMLKEGVRLD [E45C]
Second: KRLCLVCGDIASGYHYGVASCEACKAFFKRTIQGNIEYSCPATNVCEITKRRRKSCQACRFMKCLKVGMLKEGVRLD [E45V]
The abundance fitness of the first is lower: -0.396 ± 0.11 for the first, -0.144 ± 0.047 for the second.

Compared with KRLCLVCGDIASGYHYGVASCEACKAFFKRTIQGNIEYSCPATNSCEITKRRRKSCQACRFMKCLKVGMLKEGVRLD [E45S], KRLCLVCGDIASGYHYGVASCEACKAFFKRTIQGNIEYSCPATNWCEITKRRRKSCQACRFMKCLKVGMLKEGVRLD [E45W] is lower in abundance fitness: -0.149 ± 0.058 for the first, -0.981 ± 0.2 for the second.

Compared with KRLCLVCGDIASGYHYGVASCEACKAFFKRTIQGNIEYSCPATNGCEITKRRRKSCQACRFMKCLKVGMLKEGVRLD [E45G], KRLCLVCGDIASGYHYGVASCEACKAFFKRTIQGNIEYSCPATNHCEITKRRRKSCQACRFMKCLKVGMLKEGVRLD [E45H] is lower in abundance fitness: 0.003 ± 0.042 for the first, -0.143 ± 0.1 for the second.

First: KRLCLVCGDIASGYHYGVASCEACKAFFKRTIQGNIEYSCPATNQCEITKRRRKSCQACRFMKCLKVGMLKEGVRLD [E45Q]
Second: KRLCLVCGDIASGYHYGVASCEACKAFFKRTIQGNIEYSCPATNICEITKRRRKSCQACRFMKCLKVGMLKEGVRLD [E45I]
The abundance fitness of the first is higher: 0.055 ± 0.059 for the first, -0.288 ± 0.18 for the second.

Going from KRLCLVCGDIASGYHYGVASCEACKAFFKRTIQGNIEYSCPATNNCEITKRRRKSCQACRFMKCLKVGMLKEGVRLD [E45N] to KRLCLVCGDIASGYHYGVASCEACKAFFKRTIQGNIEYSCPATNPCEITKRRRKSCQACRFMKCLKVGMLKEGVRLD [E45P], the abundance fitness falls from -0.235 ± 0.12 to -0.637 ± 0.15.

KRLCLVCGDIASGYHYGVASCEACKAFFKRTIQGNIEYSCPATNDCEITKRRRKSCQACRFMKCLKVGMLKEGVRLD [E45D] and KRLCLVCGDIASGYHYGVASCEACKAFFKRTIQGNIEYSCPATIECEITKRRRKSCQACRFMKCLKVGMLKEGVRLD [N44I] are within error of each other in abundance fitness: -0.086 ± 0.086 for the first, 0.034 ± 0.13 for the second.

Compared with KRLCLVCGDIASGYHYGVASCEACKAFFKRTIQGNIEYSCPATRECEITKRRRKSCQACRFMKCLKVGMLKEGVRLD [N44R], KRLCLVCGDIASGYHYGVASCEACKAFFKRTIQGNIEYSCPATPECEITKRRRKSCQACRFMKCLKVGMLKEGVRLD [N44P] is lower in abundance fitness: 0.011 ± 0.038 for the first, -0.741 ± 0.14 for the second.

KRLCLVCGDIASGYHYGVASCEACKAFFKRTIQGNIEYSCPATYECEITKRRRKSCQACRFMKCLKVGMLKEGVRLD [N44Y] and KRLCLVCGDIASGYHYGVASCEACKAFFKRTIQGNIEYSCPATLECEITKRRRKSCQACRFMKCLKVGMLKEGVRLD [N44L] are the same in abundance fitness: -0.278 ± 0.13 for the first, -0.278 ± 0.059 for the second.

KRLCLVCGDIASGYHYGVASCEACKAFFKRTIQGNIEYSCPATKECEITKRRRKSCQACRFMKCLKVGMLKEGVRLD [N44K] and KRLCLVCGDIASGYHYGVASCEACKAFFKRTIQGNIEYSCPATVECEITKRRRKSCQACRFMKCLKVGMLKEGVRLD [N44V] are within error of each other in abundance fitness: 0.007 ± 0.054 for the first, -0.077 ± 0.049 for the second.

Compared with KRLCLVCGDIASGYHYGVASCEACKAFFKRTIQGNIEYSCPATWECEITKRRRKSCQACRFMKCLKVGMLKEGVRLD [N44W], KRLCLVCGDIASGYHYGVASCEACKAFFKRTIQGNIEYSCPATSECEITKRRRKSCQACRFMKCLKVGMLKEGVRLD [N44S] is higher in abundance fitness: -0.269 ± 0.058 for the first, -0.127 ± 0.05 for the second.

First: KRLCLVCGDIASGYHYGVASCEACKAFFKRTIQGNIEYSCPATTECEITKRRRKSCQACRFMKCLKVGMLKEGVRLD [N44T]
Second: KRLCLVCGDIASGYHYGVASCEACKAFFKRTIQGNIEYSCPATQECEITKRRRKSCQACRFMKCLKVGMLKEGVRLD [N44Q]
The abundance fitness of the first is lower: -0.22 ± 0.063 for the first, -0.013 ± 0.059 for the second.
